Reference: patent US20080299088A1 (US Dept. of Health and Human Services, published 2008)

Biological target: Notch-1 receptor on RIN 1046-38 clonal rat beta-cells (rat, UniProt Q07008 19-2531)
Test: cell-based or functional assay

Chain of Notch-1 receptor on RIN 1046-38 clonal rat beta-cells (Q07008 19-2531): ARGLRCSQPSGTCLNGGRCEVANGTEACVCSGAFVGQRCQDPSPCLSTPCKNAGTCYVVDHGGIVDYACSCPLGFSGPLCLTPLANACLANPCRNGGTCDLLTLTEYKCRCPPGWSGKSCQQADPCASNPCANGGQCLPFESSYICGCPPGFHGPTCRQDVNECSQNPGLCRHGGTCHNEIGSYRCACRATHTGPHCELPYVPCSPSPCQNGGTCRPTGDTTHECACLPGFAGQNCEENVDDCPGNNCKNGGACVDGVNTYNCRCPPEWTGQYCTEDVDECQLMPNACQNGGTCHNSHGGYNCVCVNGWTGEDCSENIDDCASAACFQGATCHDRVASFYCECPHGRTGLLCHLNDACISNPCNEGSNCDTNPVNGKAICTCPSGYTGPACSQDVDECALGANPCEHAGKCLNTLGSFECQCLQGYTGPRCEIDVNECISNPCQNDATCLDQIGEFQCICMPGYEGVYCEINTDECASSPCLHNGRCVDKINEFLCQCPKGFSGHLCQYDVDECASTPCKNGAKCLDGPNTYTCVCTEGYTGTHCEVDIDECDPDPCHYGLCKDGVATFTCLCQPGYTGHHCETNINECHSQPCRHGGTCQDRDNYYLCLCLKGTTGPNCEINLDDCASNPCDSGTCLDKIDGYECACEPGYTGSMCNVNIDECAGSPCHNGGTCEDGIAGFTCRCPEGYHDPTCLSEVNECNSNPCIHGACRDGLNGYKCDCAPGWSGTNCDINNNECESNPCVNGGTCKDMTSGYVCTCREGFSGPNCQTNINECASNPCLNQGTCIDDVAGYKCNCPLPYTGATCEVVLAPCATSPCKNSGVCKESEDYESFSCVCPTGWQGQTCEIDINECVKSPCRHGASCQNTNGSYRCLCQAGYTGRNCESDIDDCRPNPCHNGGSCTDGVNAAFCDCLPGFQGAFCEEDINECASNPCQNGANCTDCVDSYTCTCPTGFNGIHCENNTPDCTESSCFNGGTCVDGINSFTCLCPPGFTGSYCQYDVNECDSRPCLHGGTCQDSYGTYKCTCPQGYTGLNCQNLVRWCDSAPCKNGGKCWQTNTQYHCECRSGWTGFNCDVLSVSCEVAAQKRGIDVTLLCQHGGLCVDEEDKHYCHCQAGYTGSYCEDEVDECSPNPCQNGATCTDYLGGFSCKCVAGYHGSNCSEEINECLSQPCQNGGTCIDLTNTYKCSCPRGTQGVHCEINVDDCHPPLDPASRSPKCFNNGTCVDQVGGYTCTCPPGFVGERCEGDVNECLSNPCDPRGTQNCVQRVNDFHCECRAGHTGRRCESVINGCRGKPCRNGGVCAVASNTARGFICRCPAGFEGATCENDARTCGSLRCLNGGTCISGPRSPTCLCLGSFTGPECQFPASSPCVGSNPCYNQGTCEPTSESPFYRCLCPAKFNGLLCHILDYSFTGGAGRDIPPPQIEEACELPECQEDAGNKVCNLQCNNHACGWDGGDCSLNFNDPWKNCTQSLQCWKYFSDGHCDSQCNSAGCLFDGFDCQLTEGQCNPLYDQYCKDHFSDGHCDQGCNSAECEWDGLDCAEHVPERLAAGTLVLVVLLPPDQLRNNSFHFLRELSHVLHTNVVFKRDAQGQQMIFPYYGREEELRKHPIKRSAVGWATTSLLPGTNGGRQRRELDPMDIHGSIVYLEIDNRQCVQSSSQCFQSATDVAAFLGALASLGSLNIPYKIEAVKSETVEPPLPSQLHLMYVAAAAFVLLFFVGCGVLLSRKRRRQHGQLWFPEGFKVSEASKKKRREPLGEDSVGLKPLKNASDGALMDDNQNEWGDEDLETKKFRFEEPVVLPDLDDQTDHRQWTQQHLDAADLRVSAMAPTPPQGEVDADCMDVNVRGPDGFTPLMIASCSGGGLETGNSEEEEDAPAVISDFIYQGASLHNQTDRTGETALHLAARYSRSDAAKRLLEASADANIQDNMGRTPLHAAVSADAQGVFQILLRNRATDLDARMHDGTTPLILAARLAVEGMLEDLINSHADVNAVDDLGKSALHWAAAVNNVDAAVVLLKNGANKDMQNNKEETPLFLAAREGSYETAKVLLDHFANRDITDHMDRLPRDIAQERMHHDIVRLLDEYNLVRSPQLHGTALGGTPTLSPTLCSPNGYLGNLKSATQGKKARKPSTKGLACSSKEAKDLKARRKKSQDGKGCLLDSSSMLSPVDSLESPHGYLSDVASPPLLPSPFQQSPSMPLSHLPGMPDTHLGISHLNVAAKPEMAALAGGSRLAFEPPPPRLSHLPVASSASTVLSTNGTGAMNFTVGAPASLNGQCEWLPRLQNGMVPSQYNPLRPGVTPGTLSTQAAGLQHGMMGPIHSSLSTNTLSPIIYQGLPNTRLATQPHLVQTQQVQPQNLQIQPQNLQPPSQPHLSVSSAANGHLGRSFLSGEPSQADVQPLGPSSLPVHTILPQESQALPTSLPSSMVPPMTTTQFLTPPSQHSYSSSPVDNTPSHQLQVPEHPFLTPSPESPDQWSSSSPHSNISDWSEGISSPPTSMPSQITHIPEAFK

Row | Binder | NICD nuclear localization, R-JAG together with glucose [fold] | NICD translocation (nuclear NICD, immunoblot of nuclear extracts of RIN cells) [fold]
1 | CDDYYYGFGCNKFGRPRDD [Jagged peptide R-JAG] | 6 | 4
2 | CDDYYYGFGCNKFCRPR [Jagged peptide JAG-1] | – | 4
